In US9023767B2, “γ-Secretase substrates and methods of use” (Memorial Sloan-Kettering Cancer Center, priority 2009, dated 2015):
Each block holds one molecule with its values, some of them ahead of it. Where a SMILES comes first, the peptide text is derived from it. [ ]: non-standard residue; d: D form. The star is where a group is joined. Biotin = O=C1N[C@H]2[C@H](CS[C@H]2CCCCC(=O)*)N1; Bpa = N[C@@H](Cc1ccc(C(=O)c2ccccc2)cc1)C(=O)O; Sta = CC(C)C[C@H](N)[C@@H](O)CC(=O)O; Isovaleryl = CC(C)CC(=O)*

Legend:
γ-secretase [1] = molecular target: T1, γ-secretase (Homo sapiens (Human), UniProt P49768+Q92542); experiment: In vitro γ-secretase assay, HeLa membrane, APP-derived substrates, ECL detection; assay type: biochemical; settings: for effect on γ-secretase processing of the S3 substrate (in trans): peptide 0.1, 1 and 10 μM, S3 0.5, 1 and 2 μM; for inhibition of X40 production / suppression of Aβ production: 1 μM βCTF substrate; for γ-secretase activity %: cleavage of the substrate at the Aβ40 site, HeLa membrane, G2-10 antibody
Protocol: The recombinant proteins were incubated with γ-secretase (40 μg/ml) in the presence or absence of 1 μM γ-secretase inhibitor L-685,458 (CAS [292632-98-5], shown below). The reaction mixture contains 0.25% 3[(3-cholamidopropyl) dimethylammonio]-2-hydroxypropanesulfonic acid (CHAPSO), 0.1 μg/μl BSA, protease inhibitor, 50 mM PIPES, pH 7.0, 5 mM MgCl2, 5 mM CaCl2 and 150 mM KCl. The reaction was incubated for 2.5 hr at 37° C. and stopped by adding RIPA buffer (150 mM NaCl, 1.0% NP-40, 0.5% sodium
[drawing 1] deoxycholate, 0.1% SDS, 50 mM Tris HCl, pH 8.0). The products were detected with various antibody combinations as previously described (Lai et al., 2003; J. Biol. Chem., 278: 22475-22481; Li et al., 2000, Proc. Natl. Acad. Sci. USA, 97: 6138-6143; Yin et al., 2007, J. Biol. Chem., 282:23639-23644) using electrochemiluminescence (ECL). The amount of product was determined using synthetic peptide or recombinant standards. The Km and Vmax were determined from the Michaelis-Menten equation Michaelis-Menten Kinetics (ν=Vm[S]/([…]; ν: initial rate; Vm: maximum velocity; Km: the Michaelis-Menten constant, S: substrate). P-values were calculated from Student t-test. 7.1.5 Cell-Based Aβ Production Assay and Western Blot

γ-secretase [2] = molecular target: T1, γ-secretase; experiment: Photoaffinity labeling of γ-secretase in HeLa membrane by Aβ17-23BPA20-biotin; assay type: binding; settings: probe 300 nM
Protocol: FIG. 4. […] Various concentrations of inhibitor were incubated with APP substrate (S4) or Notch peptide substrate containing the C-terminal biotinylated transmembrane domain of Notch1 and HeLa cell membrane in the presence of 0.25% CHAPSO. Aβ40 was detected by G2-10 antibody. The cleaved Notch product was detected by Val1744 antibody that specifically recognizes the cleaved product between Gly1743 and Val1744. Activities are expressed as percentage relative to reading that was produced in DMSO control. […] Various concentrations of S4 substrate were incubated with HeLa membrane in fixed concentrations of inhibitor as indicated. The double reciprocal velocity (1/v) and substrate concentrations (1/S) are plotted to determine the type of inhibition. […] Assays were conducted as described in FIG. 4A. […] The labeled samples were solubilized with RIPA buffer. Biotinylated proteins were captured with streptavidin-agarose and probed by immunoblotting using antibodies against biotin, PS1-CTF, PS1-NTF, Nicastrin, PEN-2 and APH-1a. HeLa cell membrane proteins were directly loaded onto lanes indicated by an arrow in the PEN-2 and APH-1a blots as positive controls. […] Upper panel: PS1-NTF; Lower panel: PS1-CTF.
The labeled proteins were eluted with 2×SDS sample buffer and analyzed with Western blotting using antibodies against the components of γ-secretase complex. Protein concentration was determined with the Dc protein assay kit (Bio-Rad)
After the photolyzed membranes were solubilized, biotinylated proteins were captured, eluted and analyzed by western blotting with antibodies against biotin, PS1, nicastrin, PEN-2 and APH-1.

γ-secretase [3] = molecular target: T2, γ-secretase (Homo sapiens (Human), UniProt P49768); experiment: HTRF γ-secretase assay with Sb4 substrate; assay type: biochemical; settings: for pilot screen result: 10 μM, 1536-well
Description: We set out to transfer the assay conditions obtained with the ECL method to an HTRF detection based format (FIG. 10b). The HTRF detection mixture consisted of mouse G2-10 antibody for recognition of the C-terminal epitope of the cleaved product, a Europium-labeled anti-mouse antibody (commonly, an antibody is conjugated with a cryptate ligand that forms a three dimensional coordination cage structure surrounding a lanthanide such as Eu^3+), along with Streptavidin conjugated to a trimeric form of the fluorescent protein allophycocyanin referred to as XL665. Cleavage of Sb4 substrate allows G2-10 mouse antibody to bind to the Aβ40-processed site on the cleaved substrate. The Steptavidin-XL665 conjugate binds directly with the biotin moiety on the N-terminal end of the Sb4 derived product. The anti-mouse Europium antibody targets to the G2-10 antibody, bringing all of these entities into close proximity. The Europium and XL665 reagents are a compatible pair of donor-acceptor fluorophores, and excitation of Europium at 337 nm results in fluorescence energy resonance transfer (FRET) to XL665 which fluoresces at 665 nm (FIG. 10b).
Human γ-secretase was prepared from HeLa cell membranes as described previously (Li et al., 2000). Briefly, HeLa cell pellet was resuspended in 1×MES buffer (50 mM MES, pH 6.0, 150 mM KCl, 5 mM CaCl2, 5 mM MgCl2) and treated with ‘complete’ protease inhibitor (Boehringer Mannheim). The resuspended pellet was mechanically homogenized by passing the cells through the French Press (Spectronic Instruments), and subsequently spun down at 800 g to remove cell debris and nuclei. Next, the supernatants were spun at 100,000 g in order to pellet the membranes. The pelleted membranes were resuspended in 1×MES buffer to approximately 12 mg/ml. This entire procedure was performed at 4° C. HeLa membranes were solubilized using 1% CHAPSO detergent in 1×MES buffer with protease inhibitors. After incubating for 1 hr at 4° C., the membrane was spun down at 100,000 g and the supernatants were collected and stored at −70° C. The collected fraction is defined as solubilized γ-secretase.
HTRF conditions were initially optimized in a 384-well format using a final volume of 20 μl. The high control for this assay was defined as the observed γ-secretase activity in the presence of 1% DMSO (v/v) and the low control as the activity observed when including 100 nM final concentration of Compound E (v/v). First, we determined a tolerable DMSO concentration that would not interfere with γ-secretase activity. Even with 3% DMSO (v/v) present in the assay mixture, there was virtually no effect on the γ-secretase activity (FIG. 11a), which was critical as delivery of library screening compounds required a final concentration of 2% DMSO (v/v) in the γ-secretase reaction. Next, we titrated the HTRF mixture components in an effort to minimize reagent costs for use in high throughput screening. […] Additionally, we varied Europium conjugated anti-mouse antibody and determined that 1 nM of this reagent in the HTRF mixture was sufficient for our assay conditions even though the signal continued to increase with higher concentrations of the anti-mouse antibody (FIG. 11c).
We have further miniaturized the HTRF assay from the established 384-well format to a 1536-well platform enabling more efficient screening of large chemical libraries. […] Based on these optimization experiments, we set our final assay conditions at 0.3 nM G2-10, 1 nM anti-mouse antibody, 15 nM Streptavidin-XL665, and proceeded with the assay at 10 μl final volume (5 μl γ-secretase mix+5 μl HTRF mix) in the 1536-well format for screening.
The pilot assay was performed in duplicate on two separate days to account for any day-to-day variability. […]

γ-secretase [4] = molecular target: T2, γ-secretase; experiment: In vitro γ-secretase assay, solubilized γ-secretase, ECL; assay type: biochemical; settings: substrate 1 μM, background with Compound E
Description: The γ-secretase cleaved Aβ product derived from C100Flag substrate was detected by a pair of antibodies (biotinylated 4G8 and ruthenylated G2-10*) while Sb4 cleaved product was detected by ruthenylated G2-10* alone (FIG. 10a) and quantified using electrochemiluminescence (ECL) technology.
An in vitro assay was based on the one previously reported by Li et al. (2000), except we utilized Sb4 substrate that eliminated the need for biotinylated antibody. […] All assays incorporate ruthenylated G2-10* antibody to detect 40-site cleavage of APP or recombinant Sb4 substrate and quantitated activity by measuring ECL.

Molecule: CC(C)C[C@H](N)C(=O)N[C@H](C(=O)N[C@@H](Cc1ccccc1)C(=O)N[C@@H](Cc1ccc(C(=O)c2ccccc2)cc1)C(=O)N[C@@H](C)C(=O)N[C@@H](CCC(=O)O)C(=O)N[C@@H](CC(=O)O)C(=O)N[C@@H](CCCCNC(=O)CCCC[C@@H]1SC[C@@H]2NC(=O)N[C@@H]21)C(=O)O)C(C)C [Aβ17-23BPA^20-biotin] (H-LVF[Bpa]AEDK(Biotin)-OH; N-terminus and C-terminus assumed)
photolabeled bands, PS1 (γ-secretase [2]): co-migrated with PS1-CTF and PS1-NTF | photolabeling of PEN-2 and APH1a (γ-secretase [2]): not PEN-2 or APH1a | photolabeling of nicastrin (γ-secretase [2]): labels nicastrin

Molecule: N.N.[Cl][Pt][Cl] [Cisplatin]
pilot screen result (γ-secretase [3]): active compound

Molecule: O=C(O)CCCC[C@@H]1SC[C@@H]2NC(=O)N[C@@H]21 [biotin]
pilot screen result (γ-secretase [3]): active hit

Molecule: CC(C)CC(=O)N[C@H](C(=O)N[C@H](C(=O)N[C@@H](CC(C)C)[C@@H](O)CC(=O)N[C@@H](C)C(=O)N[C@@H](CC(C)C)[C@@H](O)CC(=O)O)C(C)C)C(C)C [Pepstatin A] (Isovaleryl-VV[Sta]A[Sta]-OH)
pilot screen result (γ-secretase [3]): active compound | IC50 (γ-secretase [3]; dose response, read-out: IC50, HTRF assay): 6.43 µM

Molecule: AviTag-LVFFAEDVGSNKGAIIGLMVGGVVIATVIVITLVMLKKK [S2]
γ-secretase activity % (γ-secretase [1]): None

Molecule: AviTag-KGAIIGLMVGGVVIATVIVITLVMLKKK [S1]
γ-secretase activity % (γ-secretase [1]): 100 ± 4.2%

B2: S3: AviTag substrate from Aβ17 with C-terminal tail of APP and FLAG (protein, listed as Homo sapiens)
chain: GLNDIFEAQKIEWHELVFFAEDVGSNKGAIIGLMVGGVVIATVIVITLVMLKKKQYTSIHHGVVEVDAAVTPEERHLSKMQQNGYENPTYKFFEQMQNDYKDDDDK
γ-secretase activity % (γ-secretase [1]): None

The next lines start with results.

effect on γ-secretase processing of the S3 substrate (in trans) (γ-secretase [1]): no difference
Molecule: Aβ8-16: Aβ1-16 derived synthetic peptide (SGYEVHHQK; Amyloid-beta protein 42; UniProt P05067 679-687, looked up, fragment)

inhibition of X40 production (γ-secretase [1]; 0.25 μM): 24% | suppression of Aβ production (γ-secretase [1]; 0.25 μM): 66% | inhibition of X40 production (γ-secretase [1]; 0.5 μM): 32% | suppression of Aβ production (γ-secretase [1]; 0.5 μM): 71% | inhibition of X40 production (γ-secretase [1]; 1.0 μM): 60% | suppression of Aβ production (γ-secretase [1]; 1.0 μM): 82%
Molecule: αCTF: recombinant α-secretase cleaved APP C-terminal fragment

inhibition of Aβ40 production (γ-secretase [1]; 1, 3, 10 and 30 nM, βCTF or βCTFΔ substrate): did not inhibit
Molecule: P3-42: synthetic P3 peptide Aβ17-42 (LVFFAEDVGSNKGAIIGLMVGGVVIA; Amyloid-beta protein 42; UniProt P05067 688-713, looked up, fragment)

rate of γ-secretase hydrolysis relative to αCTF-FLAG (γ-secretase [1]; X40 production, 4G8/G2-10 antibodies): 12 fold
Molecule: βCTF: recombinant β-secretase cleaved APP C-terminal fragment
Vmax (γ-secretase [1]; Aβ40 product, 6E10/G2-10, ECL): 16 ± 1 min⁻¹ µg⁻¹ | Km (γ-secretase [1]; Aβ40 product, 6E10/G2-10, ECL, read-out: apparent Km): 0.47 ± 0.09 µM

inhibition of γ-secretase activity, APP processing (γ-secretase [1]): no inhibition | effect on γ-secretase processing of the S3 substrate (in trans) (γ-secretase [1]): no difference
Molecule: Aβ1-7: Aβ1-16 derived synthetic peptide (DAEFRHD; Amyloid-beta protein 42; UniProt P05067 672-678, looked up, fragment)

ratio of signal to background (γ-secretase [4]): 7 to 1
Molecule: C100Flag: truncated APP protein used in previously published γ-secretase assays

ratio of signal to background (γ-secretase [4]): 93 to 1
B1: Sb4: biotinylated AviTag-APP695(620-695) recombinant substrate (protein, listed as Homo sapiens)
chain: GLNDIFEAQKIEWHEVGSNKGAIIGLMVGGVVIATVIVITLVMLKKKQYTSIHHGVVEVDAAVTPEERHLSKMQQNGYENPTYKFFEQMQN
modifications: biotinylated
notes: biotinylated AviTag-APP695(620-695) recombinant substrate
